From patent US20140349871A1 (University of Washington, published 2014)

Target: T1, prohibitin-2 (PHB2) (human, UniProt Q99623 2-299)
T1 construct: whole, on cells; also called BAP37
Experiment: in vivo PIR (BDP-NHP) cross-linking of intact HeLa cells, ReACT LC-MS3

T1 sequence (Q99623 2-299): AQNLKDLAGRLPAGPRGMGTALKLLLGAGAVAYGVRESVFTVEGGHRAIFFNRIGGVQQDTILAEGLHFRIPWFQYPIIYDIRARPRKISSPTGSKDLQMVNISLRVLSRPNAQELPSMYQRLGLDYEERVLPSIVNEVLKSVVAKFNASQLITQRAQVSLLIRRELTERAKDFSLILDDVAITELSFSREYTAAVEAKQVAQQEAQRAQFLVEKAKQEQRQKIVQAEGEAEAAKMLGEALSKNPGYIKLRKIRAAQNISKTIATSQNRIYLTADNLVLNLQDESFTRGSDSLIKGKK

binding result: binds
B1: prohibitin (PHB) (other, human, UniProt P35232 2-272, looked up)
chain: AAKVFESIGKFGLALAVAGGVVNSALYNVDAGHRAVIFDRFRGVQDIVVGEGTHFLIPWVQKPIIFDCRSRPRNVPVITGSKDLQNVNITLRILFRPVASQLPRIFTSIGEDYDERVLPSITTEILKSVVARFDAGELITQRELVSRQVSDDLTERAATFGLILDDVSLTHLTFGKEFTEAVEAKQVAQQEAERARFVVEKAEQQKKAAIISAEGDSKAAELIANSLATAGDGLIELRKLEAAEDIAYQLSRSRNITYLPAGQSVLLQLPQ
notes: whole, on cells; also called prohibitin 1; BAP32
